# Test results taken from patent CN113444180A (SHANGHAI SINOBAY BIO TECH CO LTD, dated 2021).
# T1: AXL on CHO-AXL细胞 (human, UniProt P30530 26-894)
# T1 construct: whole, on cells; the cell line itself is only called CHO-AXL
# T1 sequence (looked up): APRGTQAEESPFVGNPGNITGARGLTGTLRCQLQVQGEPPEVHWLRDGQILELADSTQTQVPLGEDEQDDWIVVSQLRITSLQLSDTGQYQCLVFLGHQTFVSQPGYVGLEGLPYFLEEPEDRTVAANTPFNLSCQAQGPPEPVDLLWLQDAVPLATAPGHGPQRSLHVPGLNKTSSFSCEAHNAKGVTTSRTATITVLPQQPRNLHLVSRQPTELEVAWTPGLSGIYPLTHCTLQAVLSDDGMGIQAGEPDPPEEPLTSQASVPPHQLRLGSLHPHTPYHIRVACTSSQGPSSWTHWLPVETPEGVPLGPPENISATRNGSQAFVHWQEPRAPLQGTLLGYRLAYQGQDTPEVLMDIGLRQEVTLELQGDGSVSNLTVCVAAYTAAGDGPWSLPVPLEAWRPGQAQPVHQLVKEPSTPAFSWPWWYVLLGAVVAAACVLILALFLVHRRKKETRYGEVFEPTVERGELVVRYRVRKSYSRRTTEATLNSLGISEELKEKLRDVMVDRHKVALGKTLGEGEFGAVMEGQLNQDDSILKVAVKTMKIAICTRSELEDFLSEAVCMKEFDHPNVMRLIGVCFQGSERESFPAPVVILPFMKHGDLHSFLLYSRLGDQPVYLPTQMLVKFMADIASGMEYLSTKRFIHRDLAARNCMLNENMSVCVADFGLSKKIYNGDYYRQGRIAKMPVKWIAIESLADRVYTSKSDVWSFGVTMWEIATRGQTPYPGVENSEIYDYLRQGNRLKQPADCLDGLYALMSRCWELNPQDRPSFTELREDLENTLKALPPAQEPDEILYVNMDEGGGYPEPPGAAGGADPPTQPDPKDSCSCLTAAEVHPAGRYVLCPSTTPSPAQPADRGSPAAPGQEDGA
# What was measured:
# AXL on CHO-AXL细胞 [1] = molecular target: T1, AXL on CHO-AXL细胞; experiment: flow cytometry on CHO-AXL cells, pH6.0 against pH7.4
# AXL on CHO-AXL细胞 [2] = molecular target: T1, AXL on CHO-AXL细胞; experiment: flow cytometry on CHO-AXL cells, acidic condition pH6.0, reference CCT301-38
"平均荧光强度 (MFI), acidic condition over neutral condition (AXL on CHO-AXL细胞 [1])","平均荧光强度 (MFI), fold over positive control CCT301-38 (AXL on CHO-AXL细胞 [2])",Binder
~1.5 倍 (fold),~4 倍 (fold),"Hu001-11抗体 (full-length human IgG1 kappa) (antibody, V domains shown) VH: QVQLLESGGGVVQPGRSLRLSCAASGFTFSSYGMHWVRQAPGKGLEWVAVISYDGSNKYYADSVKGRFTISRDNSKNTLYLQMNSLRAEDTAVYYCAKYGSSGPYWYFDLWGQGTLVTVSA VL: not shown"
~1.5 倍 (fold),~4 倍 (fold),"Hu001-5抗体 (full-length human IgG1 kappa) (antibody, V domains shown) VH: QVQLLESGGGVVQPGRSLRLSCAASGFTFSSYGMHWVRQAPGKGLEWVAVISYDGSNKYYADSVKGRFTISRDNSKNTLYLQMNSLRAEDTAVYYCAKDQVLAPVGGGLFDYWGQGTLVTVSA VL: DIQLTQSPSSLSASVGDRVTITCRASQSISTYLNWYQQKPGKAPESLIFAASSLASGVPSRFSGSGSGTDFTLTISSLQPEDFATYYCQQSYSTPRTFGPGTKVEIK"
